Assay in all cases: RIA, competition with 125I-Ang-(1-12)
In test [1] the target is T1, purified human angiotensinogen (AGT) protein (human, UniProt P01019 25-476).
T1 construct: also called human AGT
T1 sequence (looked up): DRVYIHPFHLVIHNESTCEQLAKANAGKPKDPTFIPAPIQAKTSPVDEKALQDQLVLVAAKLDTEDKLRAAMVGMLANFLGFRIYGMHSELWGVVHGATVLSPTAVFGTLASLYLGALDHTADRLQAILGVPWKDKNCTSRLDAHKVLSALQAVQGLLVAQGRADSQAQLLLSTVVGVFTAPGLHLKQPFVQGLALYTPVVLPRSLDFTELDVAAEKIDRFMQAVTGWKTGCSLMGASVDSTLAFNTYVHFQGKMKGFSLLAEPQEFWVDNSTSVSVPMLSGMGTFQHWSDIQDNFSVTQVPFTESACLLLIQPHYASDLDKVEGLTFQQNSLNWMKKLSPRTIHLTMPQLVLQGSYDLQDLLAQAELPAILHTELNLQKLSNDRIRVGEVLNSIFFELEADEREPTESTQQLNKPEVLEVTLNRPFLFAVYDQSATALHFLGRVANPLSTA
As to the method: (§1) h-Ang-(1-12) Specificity and Cross-reactivity Assays: For specificity, a synthetic non-radiolabeled h-Ang-(1-12) standard (purity≥98%) was used. Briefly, 200 μL of the RIA buffer (50 mM PBS, 25 mM EDTA, 0.5% triton X-100, 0.05% sodium azide and 0.5% BSA, pH 7.4) containing 50 μL of mAb (1:2,000 dilution of IgG concentration 1.3 mg/mL), 50 μL of 125I-Ang-(1-12) [6-8 fmoles/tube, purity>99%] and 50 μL of different concentrations of non-radiolabeled human Ang-(1-12) peptide (0 to 10,000 fmol/0.2 mL RIA tube) were combined and the RIA tubes were incubated overnight for 20-22 hours at 4° C. At the end of incubation period, 50 μL of 1% γ-globulin were added, mixed, and the bound/free (B/Bo) forms of h-Ang-(1-12) were then separated by precipitating the bound (B) fraction with 200 μL of 23% polyethylene glycol (PEG). The bound and unbound (Bo) traces were separated by centrifuging the tubes at 3,000 rpm for 30 min at 4° C. The radioactivity corresponding to the antibody-bound antigen in the precipitate were measured in a PerkinElmer Wizard2 Gamma Counter. The binding data were analyzed and graphed using a statistical program (GraphPad Prism 8). To examine the cross-reactivity of the mAb with human and rat AGT or AGT-derived angiotensin peptides, several fold higher concentrations (AGT up to 10,000 fmol and angiotensin peptides up to 5,000 fmol) were used. Briefly, in a total of 200 μL of RIA buffer we added 50 μL of h-Ang-(1-12) mAb (1:2,000 dilution), 50 μL of ¹²⁵I-Ang-(1-12) and 50 μL of non-radiolabeled angiotensin peptides [Ang I, ([…]; SEQ ID NO:20); Ang-(1-9), ([…]; SEQ ID NO:23); Ang II, ([…]; SEQ ID NO:21); Ang-(1-7), (DRVYIHP; SEQ ID NO:22) and rat Ang-(1-12), ([…]; SEQ ID NO:24)] or purified AGT protein (10,000 fmol per RIA tube) and after mixing the contents, the RIA tubes were incubated overnight (20-22 hours at 4° C.) and processed as described above.

Test [2] has as its target T2, purified rat angiotensinogen (AGT) protein (rat, UniProt P01015 25-477).
T2 construct: also called rat AGT
T2 sequence (looked up): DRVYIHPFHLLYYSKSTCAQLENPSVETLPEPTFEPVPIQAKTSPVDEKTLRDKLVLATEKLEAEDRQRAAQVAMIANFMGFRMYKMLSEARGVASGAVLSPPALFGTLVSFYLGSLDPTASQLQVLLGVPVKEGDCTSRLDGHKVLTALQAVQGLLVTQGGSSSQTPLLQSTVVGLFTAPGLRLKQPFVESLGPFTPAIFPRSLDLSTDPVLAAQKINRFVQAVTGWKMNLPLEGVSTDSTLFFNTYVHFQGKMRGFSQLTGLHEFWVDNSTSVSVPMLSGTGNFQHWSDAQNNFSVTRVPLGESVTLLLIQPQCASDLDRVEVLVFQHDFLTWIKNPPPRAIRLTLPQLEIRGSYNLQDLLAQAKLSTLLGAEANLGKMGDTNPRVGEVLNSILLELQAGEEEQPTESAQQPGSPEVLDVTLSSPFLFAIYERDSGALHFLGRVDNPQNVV
As to the method:
as §1

The target of another test is Ang-(1-9). As to the method:
as §1

The target of a further test is T3, Angiotensin-(1-7).
T3 construct: also called Ang-(1-7)
T3 peptide: DRVYIHP
As to the method: as §1

B1: h-Ang-(1-12) monoclonal antibody, Clone# 14B3 (Protein L purified mAb IgG) (antibody, V domains shown)
VH: DVQLQESGPGLVKPSQSLSLTCTVNGYSITSDFAWNWIRQFPGNKLEWMGYISYSGNTYYNPSLKSRISITRDTSKNQFFLQLNSVTTEDTATYYCARGSYYFDYWGQGTTLTVSS
VL: DIVMSQSPSSLAVSAGEKVTMSCKSSQSLLNSRTRKNYLAWYQQKPGQSPKLLIYWASTRESGVPDRFTGSGSGTDFTLTISSVQAEDLAVYYCKQSYNLRTFGGGTKLEIK
notes: also called Ang-(1-12)-mAb; h-Ang-(1-12) mAb
As for B1, the binding result was “no binding (tested: AGT up to 10,000 fmol)” in test [1], “no binding (tested: AGT up to 10,000 fmol)” in test [2], “no binding (tested: angiotensin peptides up to 5,000 fmol)” in the test with Ang-(1-9) and “no binding (tested: angiotensin peptides up to 5,000 fmol)” in the test with Angiotensin-(1-7).

For the origin of these results see patent US20220306756A1 (WAKE FOREST UNIVERSITY HEALTH SCIENCES, published 2022).
